Source: paper PMC2712960

Key:
[1] = target: b6f complex (monomer of 140 kD) (C. reinhardtii (endogenous)) (UniProt P23577); experiment: native gel or EMSA
[2] = target: b6f complex with cytochrome b6 C35V (C. reinhardtii (endogenous)) (UniProt P23577); experiment: native gel or EMSA

Substance	stoichiometry N [1]	stoichiometry N [2]
b6f complex (monomer of 140 kD) (from UniProt P23577 32-317; Q00471 1-215; P23230 1-160)	2	
b6f complex with cytochrome b6 C35V (from UniProt P23577 32-317; Q00471 1-215; P23230 1-160)		2
